What was measured:
[1] = target: T1, CD28 on primary human T cells (human, UniProt P10747 19-220); experiment: cell-based or functional assay
[2] = target: T1, CD28 on primary human T cells; experiment: cell-based or functional assay; remark: listed apart in the source
[3] = target: T2, Recombinant human/cynomolgus/rhesus macaque CD28 mouse IgG2a Fc fusion protein (Acro Biosystems) (human/cynomolgus/rhesus macaque, UniProt P10747 19-152); experiment: SPR Biacore T200, CD28-mIgG2a Fc on CM5
T2 construct: bought; also called huCD28

B1: v37694 (trispecific antibody, human IgG1, kappa, L234A L235A)
heavy 1: not shown
heavy 2: QVQLVESGGGLVQPGGSLRLSCSVSGIDLSSNPMIWVRQAPGKGLQYIGIIDTDGSTYYADWAKGRFTISKDSTTVYLQINSPRAEDTAVYYCARRLHGSSNGYYDDLWGQGTLVTVSSGGGGSGGGGSGGGGSGGGGSDGQMTQSPSSVSASVGDRVTITCQASQSIYSYLSWYQQKPGQRPKLLIYKASTLASGVPSRFSGSGSGTDFTLTISSVQPEDFATYYCQQGYTVTNVDKNTFGGGTKVEIKAAEPKSSDKTHTCPPCPAPEAAGGPSVFLFPPKPKDTLMISRTPEVTCVVVSVSHEDPEVKFNWYVDGVEVHNAKTKPREEQYNSTYRVVSVLTVLHQDWLNGKEYKCKVSNKALPAPIEKTISKAKGQPREPQVYVLPPSRDELTKNQVSLLCLVKGFYPSDIAVEWESNGQPENNYLTWPPVLDSDGSFFLYSKLTVDKSRWQQGNVFSCSVMHEALHNHYTQKSLSLSPG
light: DIQMTQSPSSLSASVGDRVTITCRASESVEAYVTSLMQWYQQKPGKAPKLLIYAASNVDSGVPSRFSGSGSGTDFTLTISSLQPEDIATYYCQQSRKVPFTFGGGTKVEIKRTVAAPSVFIFPPSDEQLKSGTASVVCLLNNFYPREAKVQWKVDNALQSGNSQESVTEQDSKDSTYSLSSTLTLSKADYEKHKVYACEVTHQGLSSPVTKSFNRGEC
notes: also called v37638 format, CD28 VL Y1031A
B1 was tested, and the “IL-2 maximum cytokine, T cells alone” value [1] was 29.9 pg/mL, the “IL-2 maximum cytokine, T cells with SNU 601 cells” value [1] was 226 pg/mL and the “TNFa maximum cytokine, T cells alone” value [1] was 12.9 pg/mL. The “TNFa maximum cytokine, T cells with SNU 601 cells” value [1] was 166 pg/mL, the “IC50, T cell-dependent cytotoxicity on SNU 601” value [2] was 1.44 pM and the “Maximum Killing (%), SNU 601” value [2] was 93.1%. B1: no binding [3].
